This test deals with rb_human RB1 (UniProt P06400).
Sequence of rb_human RB1 (P06400 whole entry): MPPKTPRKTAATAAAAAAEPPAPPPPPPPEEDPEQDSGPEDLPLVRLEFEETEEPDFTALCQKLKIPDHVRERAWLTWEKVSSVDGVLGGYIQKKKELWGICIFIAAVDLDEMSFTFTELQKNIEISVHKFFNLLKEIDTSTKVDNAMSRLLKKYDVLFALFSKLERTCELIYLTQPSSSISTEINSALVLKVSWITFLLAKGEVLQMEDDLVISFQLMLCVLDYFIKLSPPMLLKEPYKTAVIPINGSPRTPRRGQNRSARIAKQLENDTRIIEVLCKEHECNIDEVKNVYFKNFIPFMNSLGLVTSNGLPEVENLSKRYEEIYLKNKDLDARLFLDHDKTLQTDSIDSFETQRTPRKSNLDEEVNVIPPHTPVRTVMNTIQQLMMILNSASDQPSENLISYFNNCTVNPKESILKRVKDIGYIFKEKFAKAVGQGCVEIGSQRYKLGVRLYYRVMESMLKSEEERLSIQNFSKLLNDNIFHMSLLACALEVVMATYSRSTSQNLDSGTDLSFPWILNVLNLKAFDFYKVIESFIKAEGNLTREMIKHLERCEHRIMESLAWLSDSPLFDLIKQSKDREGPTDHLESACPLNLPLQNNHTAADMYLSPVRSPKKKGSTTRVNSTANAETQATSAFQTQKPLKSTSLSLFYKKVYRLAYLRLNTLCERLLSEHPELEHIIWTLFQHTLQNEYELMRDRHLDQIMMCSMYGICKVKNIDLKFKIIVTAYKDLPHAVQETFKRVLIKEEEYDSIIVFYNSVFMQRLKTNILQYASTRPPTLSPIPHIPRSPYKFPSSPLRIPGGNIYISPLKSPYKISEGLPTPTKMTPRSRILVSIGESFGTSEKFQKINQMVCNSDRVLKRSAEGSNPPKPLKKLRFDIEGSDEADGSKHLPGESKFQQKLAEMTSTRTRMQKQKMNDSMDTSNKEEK

Sequence of Transcription factor E2F2 (Homo sapiens), Q14209 E420A (Q14209 whole entry E420A): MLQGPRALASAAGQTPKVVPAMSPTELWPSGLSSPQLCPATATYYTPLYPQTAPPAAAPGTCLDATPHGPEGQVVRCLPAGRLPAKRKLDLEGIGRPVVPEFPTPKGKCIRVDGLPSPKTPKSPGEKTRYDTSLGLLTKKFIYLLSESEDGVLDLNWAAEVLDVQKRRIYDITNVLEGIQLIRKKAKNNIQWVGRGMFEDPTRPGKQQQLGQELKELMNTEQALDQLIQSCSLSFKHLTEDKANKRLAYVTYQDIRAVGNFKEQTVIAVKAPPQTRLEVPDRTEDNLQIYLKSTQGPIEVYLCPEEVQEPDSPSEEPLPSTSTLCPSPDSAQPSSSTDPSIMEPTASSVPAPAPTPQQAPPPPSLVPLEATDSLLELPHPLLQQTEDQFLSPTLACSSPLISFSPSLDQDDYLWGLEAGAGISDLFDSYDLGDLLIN
Sequence of Transcription factor E2F2 (Homo sapiens), Q14209 G421S (Q14209 whole entry G421S): as the sequence (Q14209 whole entry E420A) above, with A420E, G421S counted along it

For the substance “Transcription factor E2F2 (Homo sapiens), Q14209 E420A”, the “effect of a mutation on the interaction” value is on record as “decreasing interaction strength”. As for “Transcription factor E2F2 (Homo sapiens), Q14209 G421S”, the entry is “decreasing interaction strength”.

Values taken from IntAct's records for PubMed 12502741.
